The source of these data is patent publication US20020127594A1 (Takeda / Millennium, published 2002).

In the assay the target is p185 (erbB2), 185 kDa receptor-type tyrosine kinase of the EGFR family, in MDA-MB453 breast adenocarcinoma … (UniProt P04626 23-1255, limits assumed). Kind of assay: cell-based or functional assay.

B1: Don-1 EGF domain-containing fusion polypeptide (EGF domain and flanking amino acids 85-154 of murine Don-1, C-terminal Flag epitope tag), secreted by … (ligand, not shown: small tags and cut ends)
chain: LHVNSVSTTLSSWSGHARKCNETAKSYCVNGGVCYYIEGINQLSCKCPNGFFGQRCLEKLPLRLYMPDPK
On to B1, for which the “phosphorylation of the 185 kDa protein in MDA-MB453 cells (antiphosphotyrosine Western blot)” value is around 10 fold.
